# Patent publication US20180155451A1 (published 2018)
# T1: FcγRIIb (human, UniProt P31994 43-217)
# T1 construct: extracellular domain; Soluble extracellular domain with C-terminal His tag, used as analyte in Biacore; also called FcgRIIb; 2b; not shown: His tag attached to the C terminus
# T1 sequence (looked up): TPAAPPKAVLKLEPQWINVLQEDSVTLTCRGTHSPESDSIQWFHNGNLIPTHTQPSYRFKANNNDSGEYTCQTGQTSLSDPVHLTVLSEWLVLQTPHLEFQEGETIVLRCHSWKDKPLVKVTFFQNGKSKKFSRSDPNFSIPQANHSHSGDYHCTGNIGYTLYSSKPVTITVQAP
# B1: GpH7-A5/GpH7-B3 variant G237_02A/GpL16-k0 (antibody, human IgG1, kappa)
# heavy 1: not shown
# heavy 2: not shown
# light: DIVMTQSPLSLPVTPGEPASISCQASESLVHSNRNTYLHWYLQKPGQSPQLLIYKVSNRFSGVPDRFSGSGSGTDFTLKISRVEAEDVGVYYCSQNTHVPPTFGQGTKVEIERTVAAPSVFIFPPSDEQLKSGTASVVCLLNNFYPREAKVQWKVDNALQSGNSQESVTEQDSKDSTYSLSSTLTLSKADYEKHKVYACEVTHQGLSSPVTKSFNRGEC
# notes: Heterodimerized IgG1; mutation in the GpH7-B3 H chain only; also called He Ab
# B2: GpH7-A5/GpH7-B3 variant G237_10E/GpL16-k0 (antibody, human IgG1, kappa)
# heavy 1: not shown
# heavy 2: not shown
# light: DIVMTQSPLSLPVTPGEPASISCQASESLVHSNRNTYLHWYLQKPGQSPQLLIYKVSNRFSGVPDRFSGSGSGTDFTLKISRVEAEDVGVYYCSQNTHVPPTFGQGTKVEIERTVAAPSVFIFPPSDEQLKSGTASVVCLLNNFYPREAKVQWKVDNALQSGNSQESVTEQDSKDSTYSLSSTLTLSKADYEKHKVYACEVTHQGLSSPVTKSFNRGEC
# notes: as for B1
# B3: GpH7-A5/GpH7-B3 variant G237_08L/GpL16-k0 (antibody, human IgG1, kappa)
# heavy 1: not shown
# heavy 2: not shown
# light: DIVMTQSPLSLPVTPGEPASISCQASESLVHSNRNTYLHWYLQKPGQSPQLLIYKVSNRFSGVPDRFSGSGSGTDFTLKISRVEAEDVGVYYCSQNTHVPPTFGQGTKVEIERTVAAPSVFIFPPSDEQLKSGTASVVCLLNNFYPREAKVQWKVDNALQSGNSQESVTEQDSKDSTYSLSSTLTLSKADYEKHKVYACEVTHQGLSSPVTKSFNRGEC
# notes: as for B1
# B4: GpH7-A5/GpH7-B3 variant G237_09D/GpL16-k0 (antibody, human IgG1, kappa)
# heavy 1: not shown
# heavy 2: not shown
# light: DIVMTQSPLSLPVTPGEPASISCQASESLVHSNRNTYLHWYLQKPGQSPQLLIYKVSNRFSGVPDRFSGSGSGTDFTLKISRVEAEDVGVYYCSQNTHVPPTFGQGTKVEIERTVAAPSVFIFPPSDEQLKSGTASVVCLLNNFYPREAKVQWKVDNALQSGNSQESVTEQDSKDSTYSLSSTLTLSKADYEKHKVYACEVTHQGLSSPVTKSFNRGEC
# notes: as for B1
# B5: GpH7-A5/GpH7-B3 variant G237_04F/GpL16-k0 (antibody, human IgG1, kappa)
# heavy 1: not shown
# heavy 2: not shown
# light: DIVMTQSPLSLPVTPGEPASISCQASESLVHSNRNTYLHWYLQKPGQSPQLLIYKVSNRFSGVPDRFSGSGSGTDFTLKISRVEAEDVGVYYCSQNTHVPPTFGQGTKVEIERTVAAPSVFIFPPSDEQLKSGTASVVCLLNNFYPREAKVQWKVDNALQSGNSQESVTEQDSKDSTYSLSSTLTLSKADYEKHKVYACEVTHQGLSSPVTKSFNRGEC
# notes: as for B1
# B6: GpH7-A5/GpH7-B3 variant G237_15Y/GpL16-k0 (antibody, human IgG1, kappa)
# heavy 1: not shown
# heavy 2: not shown
# light: DIVMTQSPLSLPVTPGEPASISCQASESLVHSNRNTYLHWYLQKPGQSPQLLIYKVSNRFSGVPDRFSGSGSGTDFTLKISRVEAEDVGVYYCSQNTHVPPTFGQGTKVEIERTVAAPSVFIFPPSDEQLKSGTASVVCLLNNFYPREAKVQWKVDNALQSGNSQESVTEQDSKDSTYSLSSTLTLSKADYEKHKVYACEVTHQGLSSPVTKSFNRGEC
# notes: as for B1
# B7: GpH7-A5/GpH7-B3 variant G236_09D/GpL16-k0 (antibody, human IgG1, kappa)
# heavy 1: not shown
# heavy 2: not shown
# light: DIVMTQSPLSLPVTPGEPASISCQASESLVHSNRNTYLHWYLQKPGQSPQLLIYKVSNRFSGVPDRFSGSGSGTDFTLKISRVEAEDVGVYYCSQNTHVPPTFGQGTKVEIERTVAAPSVFIFPPSDEQLKSGTASVVCLLNNFYPREAKVQWKVDNALQSGNSQESVTEQDSKDSTYSLSSTLTLSKADYEKHKVYACEVTHQGLSSPVTKSFNRGEC
# notes: as for B1
# B8: GpH7-A5/GpH7-B3 variant G237_06M/GpL16-k0 (antibody, human IgG1, kappa)
# heavy 1: not shown
# heavy 2: not shown
# light: DIVMTQSPLSLPVTPGEPASISCQASESLVHSNRNTYLHWYLQKPGQSPQLLIYKVSNRFSGVPDRFSGSGSGTDFTLKISRVEAEDVGVYYCSQNTHVPPTFGQGTKVEIERTVAAPSVFIFPPSDEQLKSGTASVVCLLNNFYPREAKVQWKVDNALQSGNSQESVTEQDSKDSTYSLSSTLTLSKADYEKHKVYACEVTHQGLSSPVTKSFNRGEC
# notes: as for B1
# Experiments:
# [1] = target: T2, FcγRIa (human, UniProt P12314 16-292); assay: SPR (Biacore); He/Con_1a divided by He/Con_2b (FcγRIa against FcγRIIb)
# T2 construct: extracellular domain; Soluble extracellular domain with C-terminal His tag, used as analyte in Biacore; also called FcgRI; 1a; not shown: His tag attached to the C terminus
# T2 sequence (P12314 16-292): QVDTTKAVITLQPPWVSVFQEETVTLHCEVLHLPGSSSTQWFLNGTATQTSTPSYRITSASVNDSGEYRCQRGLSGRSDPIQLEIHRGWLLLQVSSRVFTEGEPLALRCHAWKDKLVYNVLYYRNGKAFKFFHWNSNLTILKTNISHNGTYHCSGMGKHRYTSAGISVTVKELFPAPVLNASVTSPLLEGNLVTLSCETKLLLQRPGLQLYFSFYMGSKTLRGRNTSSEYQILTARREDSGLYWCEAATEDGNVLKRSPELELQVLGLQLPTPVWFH
# [2] = target: T2, FcγRIa; assay: SPR (Biacore), antibody captured on antigen peptide, FcγR as analyte; relative to GpH7-A5/GpH7-B3/GpL16-k0 = 100
# [3] = target: T1, FcγRIIb; assay: as above
Binder,Ia/IIb He_1a/2b [1],He/Con_1a [2],He/Con_2b [3]
B1,0.73 ratio,90.3 % of control,124 % of control
B2,0.66 ratio,75.1 % of control,114 % of control
B3,0.54 ratio,79.6 % of control,148 % of control
B4,0.38 ratio,84 % of control,223 % of control
B5,0.55 ratio,81.5 % of control,149 % of control
B6,0.52 ratio,79.6 % of control,152 % of control
B7,0.58 ratio,96.6 % of control,167 % of control
B8,0.63 ratio,81.6 % of control,130 % of control
